Laboratory results published in PMC5743566 (Theranostics, 2018).

Tests used:
Assay in all cases: immunostaining of cells or tissue
[1] = biological target: HBx of HBV genotype C (Hepatitis B virus genotype C, strain …, UniProt P0C686, strain)
[2] = biological target: HBx of HBV genotype D (Hepatitis B virus genotype D, strain …, UniProt P03165, strain)
[3] = biological target: HBx of HBV genotype A (Hepatitis B virus genotype A, strain …, UniProt P69713, strain)

Measured: binding result

B1: 9D11 mAb (antibody, V domains shown)
VH: QVQLQQPGAELVRPGASVKLSCKASGYSFTSFWISWVKQRPGQGLEWIAMIHPSDNGIRFNQKFKDKATLTVDKSSSTAYMQLNSPTSEDSAVYFCARAGTATFTYWGQGTLVTVSA
VL: DIQMTQTTSSLSVSLGDRVTISCRASQDISNYLNWYQQKPDGIVKLLIYYTSRLHSGVPSRFSGSGSGTDYSLTISNLEQEDLATYFCQQGNALPWTFGGGTKLEIK
binds: all assays above
